Reference: IntAct's records for PubMed 21262861

target: sox6_human SOX6 (UniProt P35712)
Sequence (P35712 whole entry): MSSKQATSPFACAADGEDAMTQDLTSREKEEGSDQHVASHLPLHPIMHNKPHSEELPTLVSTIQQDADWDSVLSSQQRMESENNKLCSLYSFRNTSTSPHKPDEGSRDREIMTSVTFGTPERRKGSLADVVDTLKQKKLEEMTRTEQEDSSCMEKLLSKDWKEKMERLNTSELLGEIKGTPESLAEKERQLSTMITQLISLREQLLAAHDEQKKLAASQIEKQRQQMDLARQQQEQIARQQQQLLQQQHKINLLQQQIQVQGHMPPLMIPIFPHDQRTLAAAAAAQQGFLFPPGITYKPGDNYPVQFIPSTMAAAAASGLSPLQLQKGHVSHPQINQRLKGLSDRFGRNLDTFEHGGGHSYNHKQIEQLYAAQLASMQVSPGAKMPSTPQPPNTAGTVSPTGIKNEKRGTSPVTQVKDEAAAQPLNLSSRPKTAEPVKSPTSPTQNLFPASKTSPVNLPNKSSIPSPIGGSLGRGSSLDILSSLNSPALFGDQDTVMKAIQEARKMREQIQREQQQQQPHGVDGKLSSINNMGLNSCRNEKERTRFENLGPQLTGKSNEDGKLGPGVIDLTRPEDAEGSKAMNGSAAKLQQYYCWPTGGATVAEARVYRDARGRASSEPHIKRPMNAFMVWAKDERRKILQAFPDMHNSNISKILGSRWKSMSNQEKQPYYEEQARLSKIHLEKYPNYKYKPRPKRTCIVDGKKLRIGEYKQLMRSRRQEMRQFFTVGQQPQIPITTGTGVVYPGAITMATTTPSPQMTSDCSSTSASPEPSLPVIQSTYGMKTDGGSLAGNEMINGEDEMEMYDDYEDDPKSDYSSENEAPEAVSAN

Short stature homeobox protein (Homo sapiens), O15266 K116E, sequence (O15266 whole entry K116E): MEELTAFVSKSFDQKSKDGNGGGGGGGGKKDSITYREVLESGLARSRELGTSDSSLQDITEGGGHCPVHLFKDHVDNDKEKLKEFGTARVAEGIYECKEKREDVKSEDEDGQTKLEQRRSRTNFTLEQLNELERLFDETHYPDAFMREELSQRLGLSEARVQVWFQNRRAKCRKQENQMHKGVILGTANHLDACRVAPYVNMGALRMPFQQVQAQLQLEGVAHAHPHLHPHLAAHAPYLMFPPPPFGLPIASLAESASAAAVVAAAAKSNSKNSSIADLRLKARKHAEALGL
Short stature homeobox protein (Homo sapiens), O15266 R173C, sequence (O15266 whole entry R173C): as the sequence (O15266 whole entry K116E) above, with E116K, R173C counted along it
Short stature homeobox protein (Homo sapiens), O15266 A170P, sequence (O15266 whole entry A170P): as the sequence (O15266 whole entry K116E) above, with E116K, A170P counted along it
Short stature homeobox protein (Homo sapiens), O15266 D278A, sequence (O15266 whole entry D278A): as the sequence (O15266 whole entry K116E) above, with E116K, D278A counted along it
Short stature homeobox protein (Homo sapiens), O15266 R195P, sequence (O15266 whole entry R195P): as the sequence (O15266 whole entry K116E) above, with E116K, R195P counted along it
Short stature homeobox protein (Homo sapiens), O15266 R168Y, sequence (O15266 whole entry R168Y): as the sequence (O15266 whole entry K116E) above, with E116K, R168Y counted along it
Short stature homeobox protein (Homo sapiens), O15266 L132V, sequence (O15266 whole entry L132V): as the sequence (O15266 whole entry K116E) above, with E116K, L132V counted along it
Short stature homeobox protein (Homo sapiens), O15266 A233E, sequence (O15266 whole entry A233E): as the sequence (O15266 whole entry K116E) above, with E116K, A233E counted along it

Substance | effect of a mutation on the interaction
Short stature homeobox protein (Homo sapiens), O15266 L132V | disrupting interaction
Short stature homeobox protein (Homo sapiens), O15266 A233E | decreasing interaction
Short stature homeobox protein (Homo sapiens), O15266 R173C | decreasing interaction
Short stature homeobox protein (Homo sapiens), O15266 A170P | disrupting interaction
Short stature homeobox protein (Homo sapiens), O15266 K116E | decreasing interaction
Short stature homeobox protein (Homo sapiens), O15266 D278A | decreasing interaction
Short stature homeobox protein (Homo sapiens), O15266 R195P | decreasing interaction
Short stature homeobox protein (Homo sapiens), O15266 R168Y | decreasing interaction
